The target of data set [1] is activated caspase-3 (WT), His6-tagged, RED-tris-NTA labelled (UniProt P42574). The data set can be described thus: MST.
Data set [2] addresses activated caspase-7, His6-tagged, RED-tris-NTA labelled (UniProt P55210). The data set can be described thus: MST.
In data set [3] the target is activated caspase-9, His6-tagged, RED-tris-NTA labelled (UniProt P55211). The experiment in a line: MST.
Data set [4] has as its target Alexa555-SMAC (WT), a.a. 56-239 with a C-terminal cysteine (UniProt Q9NR28). The experiment in a line: fluorescence polarisation. (In general: Polarisation of emitted light reports the rotation of a fluorescent probe.)
In data set [5] the target is BIRC6 (Baculoviral IAP repeat-containing protein 6), full-length, wild-type, tag removed (UniProt Q9NR09). The experiment in a line: SEC-MALS. As to conditions: remark: other sources report otherwise.
For data set [6] the target is unchanged. The experiment in a line: cryo-EM structure. As to conditions: remark: other sources report otherwise.
The target is the same in data set [7]. The experiment in a line: cryo-EM structure. As to conditions: remark: other sources report otherwise. The source holds these as a separate data set.
The data set “cryo-EM structure” deals with the molecule itself. The experiment in a line: cryo-EM structure.
The target of data set [8] is T1, BIRC6 (Baculoviral IAP repeat-containing protein 6), full-length, wild-type, tag removed (UniProt Q9NR09 1-4857). The data set can be described thus: fluorescence polarisation.
T1 sequence (Q9NR09 whole entry): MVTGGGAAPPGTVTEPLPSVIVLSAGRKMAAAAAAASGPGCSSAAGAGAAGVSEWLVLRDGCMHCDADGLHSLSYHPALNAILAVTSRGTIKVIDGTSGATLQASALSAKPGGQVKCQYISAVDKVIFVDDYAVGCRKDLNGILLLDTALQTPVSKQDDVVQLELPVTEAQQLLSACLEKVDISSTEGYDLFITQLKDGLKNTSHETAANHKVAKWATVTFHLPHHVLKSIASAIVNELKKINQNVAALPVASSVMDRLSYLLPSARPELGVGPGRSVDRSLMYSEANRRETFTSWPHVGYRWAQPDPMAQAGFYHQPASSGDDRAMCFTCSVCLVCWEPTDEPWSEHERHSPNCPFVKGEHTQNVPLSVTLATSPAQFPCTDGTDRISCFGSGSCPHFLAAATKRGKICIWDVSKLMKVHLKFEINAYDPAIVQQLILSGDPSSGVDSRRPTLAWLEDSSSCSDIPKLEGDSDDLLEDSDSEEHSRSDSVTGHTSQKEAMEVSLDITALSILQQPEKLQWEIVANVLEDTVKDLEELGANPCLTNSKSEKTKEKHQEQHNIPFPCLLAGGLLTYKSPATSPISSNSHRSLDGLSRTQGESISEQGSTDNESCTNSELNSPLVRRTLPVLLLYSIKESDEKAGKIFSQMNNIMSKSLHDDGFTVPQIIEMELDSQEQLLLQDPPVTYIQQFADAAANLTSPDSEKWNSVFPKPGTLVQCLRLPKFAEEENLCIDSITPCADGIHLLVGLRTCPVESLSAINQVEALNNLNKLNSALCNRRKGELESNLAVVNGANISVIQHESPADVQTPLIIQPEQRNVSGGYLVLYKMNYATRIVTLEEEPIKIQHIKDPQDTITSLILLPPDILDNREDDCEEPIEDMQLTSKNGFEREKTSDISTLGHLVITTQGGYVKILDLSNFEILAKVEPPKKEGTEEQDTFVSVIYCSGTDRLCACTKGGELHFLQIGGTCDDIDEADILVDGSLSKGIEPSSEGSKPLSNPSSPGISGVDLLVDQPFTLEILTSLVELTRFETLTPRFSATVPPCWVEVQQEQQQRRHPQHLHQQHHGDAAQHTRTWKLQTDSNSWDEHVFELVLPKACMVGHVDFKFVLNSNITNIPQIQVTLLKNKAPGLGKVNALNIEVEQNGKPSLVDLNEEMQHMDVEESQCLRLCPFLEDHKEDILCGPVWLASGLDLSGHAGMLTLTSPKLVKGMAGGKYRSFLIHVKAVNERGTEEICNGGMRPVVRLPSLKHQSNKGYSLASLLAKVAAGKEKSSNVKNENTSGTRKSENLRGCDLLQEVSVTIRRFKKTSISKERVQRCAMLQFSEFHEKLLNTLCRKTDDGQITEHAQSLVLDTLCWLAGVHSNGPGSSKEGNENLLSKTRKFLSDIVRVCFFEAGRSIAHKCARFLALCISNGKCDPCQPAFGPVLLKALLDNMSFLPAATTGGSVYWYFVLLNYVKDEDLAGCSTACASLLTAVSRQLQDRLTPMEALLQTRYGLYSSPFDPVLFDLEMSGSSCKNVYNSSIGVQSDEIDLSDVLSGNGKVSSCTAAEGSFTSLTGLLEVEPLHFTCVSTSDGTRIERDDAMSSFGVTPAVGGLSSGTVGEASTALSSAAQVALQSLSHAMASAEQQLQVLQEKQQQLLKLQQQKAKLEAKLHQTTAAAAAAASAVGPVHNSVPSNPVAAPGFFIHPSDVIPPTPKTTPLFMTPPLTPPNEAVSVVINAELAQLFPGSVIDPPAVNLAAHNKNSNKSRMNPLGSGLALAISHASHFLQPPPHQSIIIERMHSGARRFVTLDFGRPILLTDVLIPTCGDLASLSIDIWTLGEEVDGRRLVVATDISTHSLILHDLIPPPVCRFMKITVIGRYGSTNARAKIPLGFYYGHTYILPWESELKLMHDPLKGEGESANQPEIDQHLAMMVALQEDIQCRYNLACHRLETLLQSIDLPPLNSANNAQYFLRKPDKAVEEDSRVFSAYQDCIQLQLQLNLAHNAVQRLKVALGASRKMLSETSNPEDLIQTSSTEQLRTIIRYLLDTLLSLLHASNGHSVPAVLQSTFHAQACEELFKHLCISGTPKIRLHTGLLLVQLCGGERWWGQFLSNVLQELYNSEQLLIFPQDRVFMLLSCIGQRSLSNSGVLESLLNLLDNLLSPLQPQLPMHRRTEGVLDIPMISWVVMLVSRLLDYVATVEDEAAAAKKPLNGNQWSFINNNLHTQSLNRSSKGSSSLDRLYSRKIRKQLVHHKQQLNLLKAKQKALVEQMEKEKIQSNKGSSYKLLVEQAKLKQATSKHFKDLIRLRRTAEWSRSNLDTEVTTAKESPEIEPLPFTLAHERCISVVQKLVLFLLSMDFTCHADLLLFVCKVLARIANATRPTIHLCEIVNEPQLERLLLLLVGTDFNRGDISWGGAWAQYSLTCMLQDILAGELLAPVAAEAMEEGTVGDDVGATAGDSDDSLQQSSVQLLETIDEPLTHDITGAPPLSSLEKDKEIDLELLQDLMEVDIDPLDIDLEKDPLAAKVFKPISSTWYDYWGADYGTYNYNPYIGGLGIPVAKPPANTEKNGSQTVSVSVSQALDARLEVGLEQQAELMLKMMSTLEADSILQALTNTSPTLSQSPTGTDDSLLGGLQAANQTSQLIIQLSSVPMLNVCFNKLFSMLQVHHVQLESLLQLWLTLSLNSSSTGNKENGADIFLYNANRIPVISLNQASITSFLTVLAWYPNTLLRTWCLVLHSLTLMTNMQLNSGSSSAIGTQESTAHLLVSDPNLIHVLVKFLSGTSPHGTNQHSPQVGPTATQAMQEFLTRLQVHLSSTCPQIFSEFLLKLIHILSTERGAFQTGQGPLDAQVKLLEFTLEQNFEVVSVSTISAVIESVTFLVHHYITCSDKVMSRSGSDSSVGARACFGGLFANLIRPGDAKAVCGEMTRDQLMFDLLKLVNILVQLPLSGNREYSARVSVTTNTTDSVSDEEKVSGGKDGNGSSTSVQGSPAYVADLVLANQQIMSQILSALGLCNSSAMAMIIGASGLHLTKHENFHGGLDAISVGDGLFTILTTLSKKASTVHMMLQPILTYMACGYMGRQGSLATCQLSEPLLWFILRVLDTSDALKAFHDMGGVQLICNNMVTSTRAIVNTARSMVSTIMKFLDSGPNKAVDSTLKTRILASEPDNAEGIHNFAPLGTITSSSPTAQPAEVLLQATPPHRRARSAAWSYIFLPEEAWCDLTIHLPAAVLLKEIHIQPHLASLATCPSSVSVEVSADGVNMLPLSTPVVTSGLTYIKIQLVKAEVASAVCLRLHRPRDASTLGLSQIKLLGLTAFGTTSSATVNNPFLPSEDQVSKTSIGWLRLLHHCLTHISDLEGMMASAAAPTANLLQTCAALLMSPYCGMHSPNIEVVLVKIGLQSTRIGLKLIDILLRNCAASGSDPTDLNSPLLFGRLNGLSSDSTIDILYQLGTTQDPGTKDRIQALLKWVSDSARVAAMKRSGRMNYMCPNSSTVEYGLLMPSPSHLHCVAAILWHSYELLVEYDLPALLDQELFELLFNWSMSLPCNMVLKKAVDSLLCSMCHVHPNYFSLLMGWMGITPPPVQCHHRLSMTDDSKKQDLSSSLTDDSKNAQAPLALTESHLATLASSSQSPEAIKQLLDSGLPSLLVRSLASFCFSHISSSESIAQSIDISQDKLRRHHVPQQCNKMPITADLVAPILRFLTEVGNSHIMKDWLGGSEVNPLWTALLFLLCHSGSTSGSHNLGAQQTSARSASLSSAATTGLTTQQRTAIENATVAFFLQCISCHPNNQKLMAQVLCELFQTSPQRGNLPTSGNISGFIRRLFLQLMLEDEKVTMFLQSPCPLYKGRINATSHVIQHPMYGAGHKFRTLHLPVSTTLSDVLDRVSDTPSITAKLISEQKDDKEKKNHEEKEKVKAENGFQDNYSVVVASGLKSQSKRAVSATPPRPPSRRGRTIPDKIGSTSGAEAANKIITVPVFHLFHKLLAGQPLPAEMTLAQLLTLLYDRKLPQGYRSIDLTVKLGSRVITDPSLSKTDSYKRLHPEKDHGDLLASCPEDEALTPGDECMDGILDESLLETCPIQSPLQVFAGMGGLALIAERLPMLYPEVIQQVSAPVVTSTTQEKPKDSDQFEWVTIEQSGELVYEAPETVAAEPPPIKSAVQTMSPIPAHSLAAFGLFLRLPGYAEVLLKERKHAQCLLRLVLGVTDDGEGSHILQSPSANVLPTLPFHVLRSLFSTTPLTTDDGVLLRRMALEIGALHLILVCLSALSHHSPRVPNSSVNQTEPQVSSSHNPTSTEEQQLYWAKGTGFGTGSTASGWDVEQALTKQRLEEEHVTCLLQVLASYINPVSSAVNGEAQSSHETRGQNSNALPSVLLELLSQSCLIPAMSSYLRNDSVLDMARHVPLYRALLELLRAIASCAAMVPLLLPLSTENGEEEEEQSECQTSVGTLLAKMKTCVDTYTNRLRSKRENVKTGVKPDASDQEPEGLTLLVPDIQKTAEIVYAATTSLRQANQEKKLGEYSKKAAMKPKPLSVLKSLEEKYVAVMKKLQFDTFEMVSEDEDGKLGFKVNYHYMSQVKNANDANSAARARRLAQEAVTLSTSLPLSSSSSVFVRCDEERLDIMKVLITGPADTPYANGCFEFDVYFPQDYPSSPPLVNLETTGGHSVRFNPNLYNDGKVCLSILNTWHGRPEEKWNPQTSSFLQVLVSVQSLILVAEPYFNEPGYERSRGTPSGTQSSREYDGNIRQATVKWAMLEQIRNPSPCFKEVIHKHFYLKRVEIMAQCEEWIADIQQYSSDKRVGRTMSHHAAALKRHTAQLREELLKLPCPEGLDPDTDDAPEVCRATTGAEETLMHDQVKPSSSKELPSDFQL
For data set [9], the target named is T1, BIRC6 (Baculoviral IAP …). The data set can be described thus: fluorescence polarisation. This is another data set of the same source.

Like-named read-outs stand apart in the source and are kept apart here.

activated caspase-3 (WT), His6-tagged, RED-tris-NTA labelled, sequence (P42574 whole entry): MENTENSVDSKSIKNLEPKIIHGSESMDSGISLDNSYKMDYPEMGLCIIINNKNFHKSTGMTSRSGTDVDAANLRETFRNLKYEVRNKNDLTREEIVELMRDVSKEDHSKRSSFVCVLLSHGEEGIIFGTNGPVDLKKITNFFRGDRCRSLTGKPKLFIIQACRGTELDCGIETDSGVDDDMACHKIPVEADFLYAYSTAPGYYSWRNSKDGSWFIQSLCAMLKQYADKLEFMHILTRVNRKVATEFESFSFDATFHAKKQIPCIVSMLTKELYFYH

By Kd is commonly meant the constant that tells how readily two partners part at equilibrium. The low end stands for higher affinity, the high end for lower affinity. On to “BIRC6 (Baculoviral IAP repeat-containing protein 6), full-length, wild-type, tag removed (from UniProt Q9NR09 1-4857) (enzyme)”, for which the dissociation constant Kd in data set [1] is 8.9 nM; in [2] it was 17.1 nM; in data set [3], 46.4 nM.
As a reminder, the stoichiometry N is the number of molecules, sites or subunits per partner or assembly. On to “BIRC6 (Baculoviral IAP repeat-containing protein 6), full-length, wild-type, tag removed, Q9NR09 1-4857”, for which the fold greater affinity than for monomeric SMAC (V81D) in [4] was greater than 10 fold. In addition, the stoichiometry N in data set [5], in data set [6] and in data set [7] was 2 in each case.

B1: SMAC (second mitochondria-derived activator of caspase), a.a. 56-239, wild-type, unlabelled (natural protein)
chain: AVPIAQKSEPHSLSSEALMRRAVSLVTDSTSTFLSQTTYALIEAITEYTKAVYTLTSLYRQYTSLLGKMNSEEEDEVWQVIIGARAEMTSKHQEYLKLETTWMTAVGLSEMAAEAAYQTGADQASITARNHIQLVKLQVEEVHQLSRKAETKLAEAQIEELRQKTQEEGEERAESEQEAYLRED
By IC50 is commonly meant the midpoint of a concentration-inhibition curve. Read a low IC50 as greater potency in that assay. With B1, in the data set “cryo-EM structure”, the “stoichiometry N” value came out at 2. Besides, in [8], 8.3 nM corresponded to half-maximal inhibition (IC50) and the dissociation constant Kd was roughly 0.6 nM.

B2: Alexa555-SMAC (WT), a.a. 56-239 with a C-terminal cysteine (natural protein)
chain: AVPIAQKSEPHSLSSEALMRRAVSLVTDSTSTFLSQTTYALIEAITEYTKAVYTLTSLYRQYTSLLGKMNSEEEDEVWQVIIGARAEMTSKHQEYLKLETTWMTAVGLSEMAAEAAYQTGADQASITARNHIQLVKLQVEEVHQLSRKAETKLAEAQIEELRQKTQEEGEERAESEQEAYLREDC
modifications: Alexa Fluor 555 on the C-terminal cysteine
Turning to B2, the binding result in data set [9] was “binds”.

B3: Alexa 555 monomeric SMAC (V81D), a.a. 56-239 with a C-terminal cysteine (natural protein)
chain: AVPIAQKSEPHSLSSEALMRRAVSLDTDSTSTFLSQTTYALIEAITEYTKAVYTLTSLYRQYTSLLGKMNSEEEDEVWQVIIGARAEMTSKHQEYLKLETTWMTAVGLSEMAAEAAYQTGADQASITARNHIQLVKLQVEEVHQLSRKAETKLAEAQIEELRQKTQEEGEERAESEQEAYLREDC
modifications: Alexa Fluor 555 on the C-terminal cysteine
B3 showed a Kd in data set [9] of 12.1 ± 1.5 nM.
As to AVPIAQKSEC (Cy3 on the C-terminal cysteine; C-terminal amide) [Cy3-labelled SMAC N-terminal peptide, AVPIAQKSEC(Cy3)-Am], the dissociation constant (Kd) in data set [9] turned out to be 35.6 ± 3 nM.

Values taken from paper doi:10.1101/2022.08.30.505748 (bioRxiv, 2022).
